Source: patent US20100311669A1
Positions of bridges follow the written chain, without caps; N, C: chain ends. No end group written: not given here.

Molecular target: Recombinant purified HER2 receptor composed of the ectodomain of HER2 fused to the Fc of human IgG (human) (UniProt P04626)
Assay: SPR (Biacore 3000), HER2-Fc immobilized, peptide as analyte, 25 C

Kd: 760 nM | koff: 0.000701 s⁻¹ | kon: 922 M⁻¹ s⁻¹
B1: AHNP analogue 8, …-OH (cyclic) (peptide)
peptide: FCGDGFYACYMDV-OH
modifications: disulfide 2-9
